The values that follow come from article PMC8270905, “Structural basis of LAIR1 targeting by polymorphic Plasmodium RIFINs” (Nature Communications, 2021).

Experiment [1] has as its target RIFIN (co-IP of the LAIR1 mutation series, Fig. 2c) (Plasmodium falciparum 3D7). Kind of experiment: co-IP; conditioned media incubated with protein A resin for one hour at room temperature; Fc-tagged RIFIN or LAIR1 pulled down, partner without Fc co-pulled down; SDS-PAGE, Coomassie blue, bands quantified with ImageJ.
The target in experiment [2] is RIFIN (co-IP of the LAIR1 mutation series, Fig. 2c). Kind of experiment: co-immunoprecipitation (Protein A Co-IP, SDS-PAGE band quantification). The conditions noted are these: LAIR1 Fc tag; RIFIN-V2 MBP tag; n = 3 independent measurements; parent: est. 3.0; read off a plot.
In experiment [3] the target is T1, RIFIN (PF3D7_1040300) V2 domain, His-tagged (Plasmodium falciparum 3D7, UniProt Q8IJ06 184-328).
T1 construct: RIFIN PF3D7_1040300 (RIF1) of Plasmodium falciparum 3D7, variable domain 2 (V2); PDB 7JZI holds the V2 domain of this RIFIN; also called RIF1; source: Expi293F or Expi293 GnTI- cells, transfected
T1 sequence: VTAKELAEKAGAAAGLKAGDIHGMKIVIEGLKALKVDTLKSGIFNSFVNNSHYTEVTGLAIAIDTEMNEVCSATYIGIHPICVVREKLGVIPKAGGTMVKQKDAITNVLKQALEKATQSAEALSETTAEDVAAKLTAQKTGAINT
Kind of experiment: BLI; fortéBio Octet Red384; His-tagged RIFIN V2 domain immobilised on Ni-NTA biosensors, dipped into LAIR1 or MGD21 in a twofold concentration series; global fit, 1:1 Langmuir model. The conditions noted are these: both partners purified.

Molecule LAIR1 N153S (receptor) came in with a fold increase in affinity over native LAIR1 in experiment [1] of 10 fold.

Take LAIR1 T151L (receptor): in experiment [1], the fold increase in affinity over native LAIR1 was 10 fold.

On to “native human LAIR1 (from UniProt Q6GTX8) T151L; N153S”, for which the other: % pulldown vs MGD21 (% of MGD21 LAIR1 pulldown) in experiment [2] is 66.

With “native human LAIR1 (from UniProt Q6GTX8) T151L; N153S; A161T; P190S; P191R”, in experiment [2], the other: % pulldown vs MGD21 (% of MGD21 LAIR1 pulldown) worked out at 58.

For “native human LAIR1 (from UniProt Q6GTX8) T151L; N153S; P190S; P191R”, the other: % pulldown vs MGD21 (% of MGD21 LAIR1 pulldown) in experiment [2] was 62.

B1: native human LAIR1 (receptor)
chain: QEEDLPRPSISAEPGTVIPLGSHVTFVCRGPVGVQTFRLERDSRSTYNDTEDVSQASPSESEARFRIDSVREGNAGLYRCIYYKPPKWSEQSDYLELLVKE
modifications: N-linked glycosylation at N153 (MGD21 numbering)
notes: Leukocyte-associated immunoglobulin-like receptor 1 (LAIR1), human, unmutated; Probably the same limits as the MGD21 LAIR1 ectodomain; also called hLAIR1; unmutated (native) LAIR1; source: Expi293F or Expi293 GnTI- cells, transfected
The term Kd denotes the constant that tells how readily two partners part at equilibrium. Lower therefore signals tighter binding. With B1, the Kd in experiment [3] was more than 1 µM.
